From patent publication US20210040189A1 (Amgen, published 2021)

T1: human DKK1 (human, UniProt O94907 32-266)
T1 construct: also called huDKK1; hDKK1
T1 sequence: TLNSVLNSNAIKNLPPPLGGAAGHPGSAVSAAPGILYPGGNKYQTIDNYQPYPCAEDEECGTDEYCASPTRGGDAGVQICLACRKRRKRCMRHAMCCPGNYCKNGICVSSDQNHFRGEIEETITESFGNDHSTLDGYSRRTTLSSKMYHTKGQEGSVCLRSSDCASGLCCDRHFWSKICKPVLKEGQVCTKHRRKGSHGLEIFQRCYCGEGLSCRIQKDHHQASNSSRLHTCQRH

T2: mouse DKK1 (mouse, UniProt O54908 32-272)
T2 construct: also called murine DKK1
T2 sequence: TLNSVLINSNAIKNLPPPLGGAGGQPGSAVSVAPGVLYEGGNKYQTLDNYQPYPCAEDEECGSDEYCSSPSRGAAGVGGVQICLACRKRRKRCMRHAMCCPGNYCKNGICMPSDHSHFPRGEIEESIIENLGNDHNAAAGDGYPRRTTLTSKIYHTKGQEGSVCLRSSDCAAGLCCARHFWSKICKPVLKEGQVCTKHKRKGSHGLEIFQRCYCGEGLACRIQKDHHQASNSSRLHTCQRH


How the values were obtained:
[1] = molecular target: T1, human DKK1; experiment: BiaCore 2000
From the text: BiaCore allowed us to determine the kd of the selected antibodies.

[2] = molecular target: T1, human DKK1; experiment: cell-based or functional assay
[3] = molecular target: T1, human DKK1; experiment: KinExA 3000 equilibrium binding in solution
Protocol: (§1) Accordingly, the affinity of several of these antibodies to DKK1 was further assessed by an equilibrium binding analysis using the more sensitive KinExAtm 3000. For these measurements, Reacti-Gel 6× beads (Pierce, Rockford, Ill.) were pre-coated with human, cynomologous or mouse DKK1 and blocked with BSA. One hundred pM, 300 pM, or 1000 pM of the antibody was mixed with various concentrations of human, mouse or cyno DKK1, ranging in concentration from 1 pM to 50 nM, and equilibrated at room temperature for 8 hours. The mixtures were then passed over the DKK1-coated beads. The amount of bead-bound anti-DKK1 antibody was quantified using goat anti-human-IgG antibody labeled with a fluorescent tag (Cy5; Jackson Immuno Research, West Grove, Pa.). The amount of fluorescent signal measured was proportional to the concentration of free anti-DKK1 antibody in each reaction mixture at equilibrium. The dissociation equilibrium constant (Kd) was obtained from nonlinear regression of the competition curves using a dual-curve one-site homogeneous binding model using the KinExA software.

[4] = molecular target: T2, mouse DKK1; experiment: KinExA 3000 equilibrium binding in solution
Protocol: as §1

Binder	koff [1]	ST2 EC50 [2]	TCF EC50 [2]	Kd [3]	Kd [4]
2.20.1 (antibody, V domains shown, Fully human hybridoma IgG, kappa (Vk)) VH: QVQLVESGGGVVQPGRSLRLSCAASGFTFSSYGMHWVRQAPGKGLEWVAVISYDGSDKYYADSVKGRFTISRDNSKNTLYLQMNSLRAEDTAVYYCARDQWGGSPAGPWGQGTLVTVSS VL: DIVMTQTPLSLSVIPGQPASISCKSSQSLLHSDGKTYLYWYLQRPGQPPQLLIYEVSNRFSGVPHRLSGSGSGTDFTLKISRVEAEDVGVYYCMQSIQVPWTFGQGTKVEIK	0.00024 s⁻¹	34.7 nM	10.7 nM	–	–
2.41.1 (antibody, V domains shown, Fully human hybridoma IgG, kappa (Vk)) VH: QVQLVESGGGVVQPGRSLRLSCAASGFTFSSYGMHWVRQAPGKGLEWVAVISYDGSDKYYADSVKGRFTISRDNSKNTLYLQMNSLRAEDTAVYYCARAGYSLYYYYGMDVWGQGTTVTVSS VL: DIVMTQTPLSLSVTPGQPASISCKSSQSLLHSDGKTYLYWYLQKPGQPPQLLIYEVSNRFSGVPDRFSGSGSGTDFTLKISRVEAEDVGVYYCMQSKQLPFTFGPGTKVDIK	0.0013 s⁻¹	89.1 nM	32.1 nM	–	–
2.47.1 (antibody, V domains shown, Fully human hybridoma IgG, kappa (Vk)) VH: QVQLQESGPGLVKPSQTLSLTCTVSGGSISSGGYYWSWIRQHPGKGLEWIGDIYYSGSTYYNPSLKSRVTISVDTSKNQFSLKLSSVTAADTAVYYCARDRAYGDYGGDYYYGMDVWGQGTTVTVSS VL: DIVMTQTPLSLPVTPGEPASISCRSSQSLLDSDDGDTYLDWYLQKPGQSPQLLIYTLSYRASGVPDRFSGSGSGTDFTLKISRVEAEDVGVYYCMQRIEFPFTFGPGTKVDIK	0.00092 s⁻¹	–	60.7 nM	–	–
5.17.1 (antibody, V domains shown, Fully human hybridoma IgG, kappa (Vk)) VH: QVQLQESGPGLVKPSETLSLTCTVSGGSISSYYWSWIRQPPGKGLEWIGYIYYSGNTNYNPSLKSRVTISVDTSKNQFSLKLRSVTAADTAVYYCARYNWNNDLFDYWGQGTLVTVSS VL: DIQMTQSPSSLSASVGDRVTITCQASQDINNYLNWYQQKPGKAPNLLIYDASNLETGVPSRFSGSGSGTDFTFTISSLQPADIATYYCQQYDDFPLTFGGGTKVEIK	0.000303 s⁻¹	8.24 nM	3.48 nM	–	–
5.23.1 (antibody, V domains shown) VH: QVQLVESGGGVVQPGRSLRLSCAASGFTFSSYGMHWVRQAPGKGLEWVAVIWCDGSNKYYADSVKGRFTISRDSSKNTLYLQMNSLRAEDTAVYYCARGGYGSGSYEDYYYGMDVWGQGTTVTVSS VL: not shown	0.000181 s⁻¹	4.29 nM	1.01 nM	–	–
5.31.1 (antibody, V domains shown, Fully human hybridoma IgG, kappa (Vk)) VH: QVQLVESGGGVVQPGRSLRLSCAASGFTFSSYGMHWVRQAPGKGLEWVAVIWYDGRNKYYADSVKGRFTISRDNSKNTLYLQMNSLRAEDTAVYYCARGGGAVADYNYYYGMDVWGQGTTVTVSS VL: DIQVTQSPSSLSASVGDRVTITCQASQDISNYLNWYQQKPGKAPKFLIYDASNLEAGVPSRFSGSGSGTDFTFTISSLQPEDIATYYCQQYDNLPLTFGGGTKVEIK	0.000105 s⁻¹	10.4 nM	5.29 nM	–	–
5.40.1 (antibody, V domains shown, Fully human hybridoma IgG, kappa (Vk)) VH: QVLLQESGPGLVKPSETLSLTCTVSGGSISSYYWSWIRQTPGKGLEWIGYVYYSGSTSYNPSLKSRVTISMYTSKTEFSLKLSSVTAADTAVYYCARYNWNNDLFDYWGQGTLVTVSS VL: DIRLTQSPSSLSASVGDRVTITCQASQDISNYLNWYQQEPGKAPKLLIYDASNLETGVPSRFSGSGSGTDFTFTISSLQPEDIATYYCQQYDNFPLTFGGGTKVEIK	0.000281 s⁻¹	7.24 nM	3.75 nM	–	–
5.65.1 (antibody, V domains shown, Fully human hybridoma IgG, lambda (Vl)) VH: EVQLLESGGGLVQPGGSLRLSCAASGFTSGNYAMSWVRQAPGKGLEWVSAISGGGGTTYYADSVEGRFTISRDNSKNTLYLQLNSLRAEDTAVYYCAKEFGELEPRFDYWGQGTLVTVSS VL: SYVLTQPPSVSVAPGQTARITCGGNNIGSKSVHWYQQKPGQAPVLVVYDDSDRPSGIPERFSGSNSGNTATLTISRVEAGDEADYYCQVLDSSSDHVIFGGGTKLTVL	0.000525 s⁻¹	5.87 nM	4.21 nM	–	–
5.76.1 (antibody, V domains shown, Fully human hybridoma IgG, lambda (Vl)) VH: QLQLQESGPGLVKPSETLSLTCTVSGGSISSSNYYWGWIRQPPGKGLEWIGTIYYSGSTYYTPSLKSRVTISVDTSKNQFSLKLSSVTAADTAVYYCARERAIAVAAIVFFDYWGQGTLVTVSS VL: SYVLTQPPSVSVAPGQTARITCGGNNIGSESVHWYQQKPGQAPVLVVYDDSDRPSGIPERFSGSNSGNTATLTISRVEAGDEADYYCQVWDSSNDHVVFGGGTKLTVL	0.000241 s⁻¹	4.09 nM	2.55 nM	–	–
5.77.1 (antibody, V domains shown, Fully human hybridoma IgG, lambda (Vl)) VH: QVQLVQSGAEVKKPGASVKVSCKASGYTFTSYDINWVRQATGQGLEWMGWMNLNSDNTGYAQKFQGRVTMTRNTSISTAYMELSSLRSEDTAVYYCASIAARRDYNYYGMDVWGQGTKVTVSS VL: QSPSVSVAPGQTARITCGGNNIGSKSVHWYQQKPGQAPVLVVYDDSDRPSGIPERFSGSNSGNTATLTISRVEAGDEADYYCQVWDSSSDHWVFGGGTKLTVL	< 2e-05 s⁻¹	6.23 nM	2.14 nM	0.008 nM	0.14 nM
5.78.1 (antibody, V domains shown, Fully human hybridoma IgG, kappa (Vk)) VH: QVQLVESGGGVVQPGRSLRLSCAASGFTFSSYGMHWVRQAPGKGLEWVAVILYDGSDNYYADSVKGRFTISRDNSKNTLYLQMNSLRAEDTAVYYCAREGIAVAGDYYYYGMDVWGQGTTVTVSS VL: EIVLTQSPGTLSVSPGERATLSCRASQSVSSSYLAWYQQKPGQAPRLLIYGASGRATGIPDRFSGSGSGTDFILTISRLEPEDFAVYYCQQYGSSFTFGGGTKVEIK	0.000191 s⁻¹	5.7 nM	3.75 nM	–	–
5.80.1 (antibody, V domains shown, Fully human hybridoma IgG, lambda (Vl)) VH: EVQLVQSGAEVKKPGESLKISCKGSGYSFTSYWIGWVRQMPGKGLEWMGIIYPGDSDTRYSPSFQGQVTISADKSISTAYLQWSSLTASDTAMYYCARQGESFDYWGQGTLVTVSS VL: QSVLTQPPSVSGAPGQRVTISCTGSSSNIGADYDVHWYQQLPGTAPKLLIYDYSNRPSGVPDRFSGSKSGTSASLAITGLQAEDEADYYCQSYDNSLSGYVVFGGGTKLTVL	< 2e-05 s⁻¹	5.03 nM	3.22 nM	0.06 nM	0.025 nM
5.85.1 (antibody, V domains shown) VH: EVQLVQSGAEVKKPGESLKISCKVSGYSFTTYWIGWVRQMPGKGLDWMGIIYPGDSDTRYSPSFQGQVTISADKSISTAYLQWSSLKASDTAMYYCARQGIAFDYWGQGTLVTVSS VL: QSVLTQPPSVSGAPGQRVTISCTGSSSNIGAGYDVHWYQQLPRTAPKLLIYGNSNRPSGVPDRFSDSKSGTSASLAITGLQAEDEADYYCQSYDSSLSVIFGGGTKLTVL	–	10.6 nM	4.53 nM	–	–
6.139.5 (antibody, V domains shown, Fully human hybridoma IgG, kappa (Vk)) VH: QVQLVESGGGVVQPGRSLRLSCAASGFTFSSYGMHWVRQAPGKGLEWVAVISYDGGDQYYADSVKGRFTISRDNSKNTLYLQMNSLRTEDTAEYYCARELRVLWGQGTLVTVSS VL: DIVMTQTPLSLSVTPRQPASISCKSSQSLLHSDGKTYLYWYLQKPGQPPQFLIYEVSNRFSGVPDRFSGSGSGTDFTLKISRVEAEDVGVYYCMQSIQLPWTFGQGTKVEIK	0.000209 s⁻¹	3.93 nM	9.78 nM	0.11 nM	–
6.147.4 (antibody, V domains shown, Fully human hybridoma IgG, lambda (Vl)) VH: QVQLVESGGGVVQPGRSLRLSCAASGFTFSRYDMHWVRQAPGKGLEWVAIIFYDGSNKYYADPVKGRFTISRDNSKNTLYLQMNSLRAEDTAVYYCATLAAAFDYWGQGTLVTVSS VL: YVLTQPPSVSVAPGQTARITCGGNNIGSKSVHWYQQKPGQAPVLVVYDDSDRPSEIPERFSGSNSGNTATLTISRVEAGDEADYYCQVWDSSSDHVVFGGGTRLTVL	0.000251 s⁻¹	2.57 nM	3.95 nM	0.125 nM	–
2.4.1 (antibody, V domains shown, Fully human hybridoma IgG, kappa (Vk)) VH: QVQLMQSGAEVKKPGASVKVSCKASGYTFTSYGISWVRQAPGQGLEWMGWISADNGHTNYAQKLQGRVTMTTDTSTSTAYMELRSLRSDDTAVYYCARDGELLNYYYYYGMDVWGQGTTVTVSS VL: DIQMTQSPSSLSASVGDRVTITCRASQGIRDDLGWFQQKPGKAPKRLIYAASSLQSGVPSRFSGSGSGTEFTLTISSLQPEDFATYYCLQHNSYPCSFGQGTKLEFK	0.0006 s⁻¹	17.2 nM	38.6 nM	–	–
